In the supplement of paper PMC9233669 one finds self-aminoacylation data, which are given here for 22 sequences.

This sample holds only a part of the variants without activity.

The test system of one series is biotinyl-Val-oxazolone. Briefly: self-aminoacylation, catalytic enhancement (BVO) (fold over background); higher = more active; k-Seq, kA / k0A0; sequences stand for … in GGGAAUGGAUCCACAUCUACGAAUUC…UUCACUGCAGACUUGACGAAGCUG
In outline:
(§1)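 Mutagenized RNA pools with a 21-nt variable region (0.43 μM) were reacted with each biotinyl-aminoacyl-oxazolone at 2–1250 μM for 90 minutes at room temperature, in 50 μL HEPES/NaCl/KCl/MgCl2/CaCl2 buffer containing 5% acetonitrile at pH 6.9–7.0. RNA captured on streptavidin was quantified by triplicate qPCR and by Illumina sequencing. The fraction reacted for each sequence was fit to a pseudo-first-order model with bootstrapping, and catalytic enhancement is the median kA divided by the uncatalyzed rate, taken as the low-activity peak of a bimodal Gaussian fit.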

For another series, the system named is biotinyl-Ile-oxazolone. Briefly: self-aminoacylation, catalytic enhancement (BIO) (fold over background); higher = more active; k-Seq, kA / k0A0; sequences stand for … in GGGAAUGGAUCCACAUCUACGAAUUC…UUCACUGCAGACUUGACGAAGCUG
In outline: as §1

The subject of the next series is biotinyl-Leu-oxazolone. As to the kind of experiment: self-aminoacylation, catalytic enhancement (BLO) (fold over background); higher = more active; k-Seq, kA / k0A0; sequences stand for … in GGGAAUGGAUCCACAUCUACGAAUUC…UUCACUGCAGACUUGACGAAGCUG
In outline: as §1

The subject of another series is biotinyl-Phe-oxazolone. As to the kind of experiment: self-aminoacylation, catalytic enhancement (BFO) (fold over background); higher = more active; k-Seq, kA / k0A0; sequences stand for … in GGGAAUGGAUCCACAUCUACGAAUUC…UUCACUGCAGACUUGACGAAGCUG
In short, it runs like this: as §1

The next series has as its system biotinyl-Trp-oxazolone. Briefly: self-aminoacylation, catalytic enhancement (BWO) (fold over background); higher = more active; k-Seq, kA / k0A0; sequences stand for … in GGGAAUGGAUCCACAUCUACGAAUUC…UUCACUGCAGACUUGACGAAGCUG
In outline:
as §1

In another series the test system is biotinyl-Met-oxazolone. Briefly: self-aminoacylation, catalytic enhancement (BMO) (fold over background); higher = more active; k-Seq, kA / k0A0; sequences stand for … in GGGAAUGGAUCCACAUCUACGAAUUC…UUCACUGCAGACUUGACGAAGCUG
In short, it runs like this: as §1

Take “CCACGCUUGAAGCAAUCGGUC [Fam1B.1 aminoacylation ribozyme variant]”: the self-aminoacylation in the series with biotinyl-Val-oxazolone was 1.28; with biotinyl-Ile-oxazolone it was 0.895; in the series with biotinyl-Leu-oxazolone, 0.714; in the series on biotinyl-Phe-oxazolone, 0.547; in the series with biotinyl-Trp-oxazolone, 1.01; in the series with biotinyl-Met-oxazolone, 0.861.

For the sequence “AUUAACCUCGUCAUCGAGUGA [Fam2.1 aminoacylation ribozyme variant]”, the self-aminoacylation was found to be 2.25 in the series on biotinyl-Val-oxazolone; 2.33 in the series with biotinyl-Ile-oxazolone; 2.82 in the series on biotinyl-Leu-oxazolone; 3.89 in the series with biotinyl-Phe-oxazolone; 4.68 in the series with biotinyl-Trp-oxazolone; 3.27 with biotinyl-Met-oxazolone.

For “CCACACUUCAAGAACUCGGUC [Fam1B.1 aminoacylation ribozyme variant]”, the self-aminoacylation with biotinyl-Val-oxazolone amounted to 1.01; with biotinyl-Ile-oxazolone, 0.836; in the series with biotinyl-Leu-oxazolone, 1.01; with biotinyl-Phe-oxazolone, 0.548; in the series on biotinyl-Trp-oxazolone, 0.586; in the series on biotinyl-Met-oxazolone it was 0.696.

For the sequence “AAGUUUGCCAAAAGUCGCAAG [Fam3.1 aminoacylation ribozyme variant]”, the self-aminoacylation in the series on biotinyl-Val-oxazolone came out at 1.36; in the series with biotinyl-Ile-oxazolone, 1.41; with biotinyl-Leu-oxazolone, 1.57; with biotinyl-Phe-oxazolone it was 1.01; in the series on biotinyl-Trp-oxazolone, 1.54; in the series with biotinyl-Met-oxazolone it was 1.39.

For “AAGAUUGCUAAUACUCGCAAG [Fam3.1 aminoacylation ribozyme variant]”, the self-aminoacylation worked out at 1.37 in the series on biotinyl-Val-oxazolone; 1.72 with biotinyl-Ile-oxazolone; 1.24 in the series with biotinyl-Leu-oxazolone; 1.48 in the series on biotinyl-Phe-oxazolone; 1.91 in the series on biotinyl-Trp-oxazolone; 1.41 in the series on biotinyl-Met-oxazolone.

In the case of “AUUCACCUAAGUGAUCGGGUG [Fam2.2 aminoacylation ribozyme variant]”, the self-aminoacylation amounted to 1.77 in the series with biotinyl-Val-oxazolone; 1.65 with biotinyl-Ile-oxazolone; 2.94 in the series on biotinyl-Leu-oxazolone; 9.9 in the series on biotinyl-Phe-oxazolone; 2 in the series with biotinyl-Trp-oxazolone; 2.25 in the series on biotinyl-Met-oxazolone.

For the sequence “CCACACUUCAUGCAAUCUGUC [Fam1B.1 aminoacylation ribozyme variant]”, the self-aminoacylation with biotinyl-Val-oxazolone came to 0.479; in the series with biotinyl-Ile-oxazolone, 0.454; in the series on biotinyl-Leu-oxazolone it was 0.35; with biotinyl-Phe-oxazolone, 0.605; with biotinyl-Trp-oxazolone, 0.277; in the series with biotinyl-Met-oxazolone, 0.391.

With “AUUCACCUAGGUCAUUUGGUG [Fam2.2 aminoacylation ribozyme variant]”, the self-aminoacylation in the series with biotinyl-Val-oxazolone stood at 2.03; in the series on biotinyl-Ile-oxazolone, 2.13; in the series on biotinyl-Leu-oxazolone it was 4.82; in the series on biotinyl-Phe-oxazolone it was 21.2; in the series on biotinyl-Trp-oxazolone it was 3.43; in the series on biotinyl-Met-oxazolone, 3.31.

As for “CCUCACUUCAAGCAAUCGUUC [Fam1B.1 aminoacylation ribozyme variant]”, the self-aminoacylation in the series with biotinyl-Val-oxazolone came out at 0.637; in the series with biotinyl-Ile-oxazolone, 0.664; in the series on biotinyl-Leu-oxazolone it was 0.604; with biotinyl-Phe-oxazolone, 1.29; in the series with biotinyl-Trp-oxazolone it was 0.754; with biotinyl-Met-oxazolone it was 0.473.

For the sequence “CUACUUCAACCAAUCGGUCUG [Fam1A.1 aminoacylation ribozyme variant]”, the self-aminoacylation amounted to 1.04 in the series on biotinyl-Val-oxazolone; 0.988 in the series with biotinyl-Ile-oxazolone; 1.48 in the series on biotinyl-Leu-oxazolone; 33.1 in the series with biotinyl-Phe-oxazolone; 18.7 in the series with biotinyl-Trp-oxazolone; 1.07 in the series with biotinyl-Met-oxazolone.

In the case of “AUUAACCUGGUCAUCGAUUGA [Fam2.1 aminoacylation ribozyme variant]”, the self-aminoacylation amounted to 0.818 with biotinyl-Val-oxazolone; 0.963 in the series with biotinyl-Ile-oxazolone; 0.88 with biotinyl-Leu-oxazolone; 0.76 in the series on biotinyl-Phe-oxazolone; 1.15 with biotinyl-Trp-oxazolone; 0.959 in the series on biotinyl-Met-oxazolone.

Take “CCACACUUCAAACAAUCGGUG [Fam1B.1 aminoacylation ribozyme variant]”: the self-aminoacylation in the series on biotinyl-Val-oxazolone came out at 3.01; in the series with biotinyl-Ile-oxazolone it was 2.96; in the series on biotinyl-Leu-oxazolone, 6.19; in the series with biotinyl-Phe-oxazolone, 4.88; in the series on biotinyl-Trp-oxazolone, 4.19; in the series with biotinyl-Met-oxazolone it was 4.77.

Turning to “AAGUUUGCUAAUACUCGUAAG [Fam3.1 aminoacylation ribozyme variant]”, the self-aminoacylation in the series with biotinyl-Val-oxazolone amounted to 0.636; with biotinyl-Ile-oxazolone, 0.57; with biotinyl-Leu-oxazolone, 0.559; with biotinyl-Phe-oxazolone it was 0.706; in the series on biotinyl-Trp-oxazolone it was 0.557; in the series with biotinyl-Met-oxazolone it was 0.547.

For “AUUACCUUGGUCAUCGAGCGA [Fam2.1 aminoacylation ribozyme variant]”, the self-aminoacylation in the series on biotinyl-Val-oxazolone turned out to be 1.83; in the series with biotinyl-Ile-oxazolone, 1.55; with biotinyl-Leu-oxazolone, 1.74; with biotinyl-Phe-oxazolone, 1.02; in the series on biotinyl-Trp-oxazolone it was 1.57; in the series on biotinyl-Met-oxazolone, 1.5.

As for “AUUCACCUAGGUCAUCUGGUG [Fam2.2 aminoacylation ribozyme variant]”, the self-aminoacylation is 1.9 in the series with biotinyl-Val-oxazolone; 1.93 in the series on biotinyl-Ile-oxazolone; 3.41 in the series with biotinyl-Leu-oxazolone; 16.5 in the series on biotinyl-Phe-oxazolone; 2.62 with biotinyl-Trp-oxazolone; 2.71 in the series with biotinyl-Met-oxazolone.

Regarding “AUUACCUGGGUCAUCGAGUGA [Fam2.1 aminoacylation ribozyme variant]”, the self-aminoacylation in the series on biotinyl-Val-oxazolone turned out to be 3.05; in the series with biotinyl-Ile-oxazolone it was 2.83; in the series with biotinyl-Leu-oxazolone, 4.74; with biotinyl-Phe-oxazolone, 5.6; in the series with biotinyl-Trp-oxazolone, 5.91; in the series on biotinyl-Met-oxazolone, 5.07.

Regarding “CUACUCCAAACAGUCGGUCUG [Fam1A.1 aminoacylation ribozyme variant]”, the self-aminoacylation in the series on biotinyl-Val-oxazolone came to 1.06; in the series on biotinyl-Ile-oxazolone it was 0.953; with biotinyl-Leu-oxazolone, 1.1; in the series on biotinyl-Phe-oxazolone, 3.1; in the series on biotinyl-Trp-oxazolone, 0.323; in the series with biotinyl-Met-oxazolone it was 0.958.

For the sequence “UAGUGUGCUAAUAGUCGCAAG [Fam3.1 aminoacylation ribozyme variant]”, the self-aminoacylation was determined as 1.76 with biotinyl-Val-oxazolone; 1.83 in the series on biotinyl-Ile-oxazolone; 1.21 in the series with biotinyl-Leu-oxazolone; 2.94 in the series with biotinyl-Phe-oxazolone; 2.19 in the series with biotinyl-Trp-oxazolone; 1.88 in the series with biotinyl-Met-oxazolone.

For “CUACUUCAAUCAAUCGGUAUG [Fam1A.1 aminoacylation ribozyme variant]”, the self-aminoacylation with biotinyl-Val-oxazolone was 0.848; in the series on biotinyl-Ile-oxazolone, 0.797; in the series with biotinyl-Leu-oxazolone, 0.88; with biotinyl-Phe-oxazolone, 10.8; in the series with biotinyl-Trp-oxazolone it was 6.33; with biotinyl-Met-oxazolone, 0.961.

For “AUUACCCUGGCCAUCGAGGGA [Fam2.1 aminoacylation ribozyme variant]”, the self-aminoacylation in the series with biotinyl-Val-oxazolone came to 2.96; with biotinyl-Ile-oxazolone, 1.9; in the series on biotinyl-Leu-oxazolone, 1.47; in the series with biotinyl-Phe-oxazolone, 0.483; in the series on biotinyl-Trp-oxazolone, 1.31; in the series with biotinyl-Met-oxazolone, 1.01.

As to “AAGGUUGUUAAUAGUCGCAAG [Fam3.1 aminoacylation ribozyme variant]”, the self-aminoacylation with biotinyl-Val-oxazolone worked out at 1.39; with biotinyl-Ile-oxazolone it was 1.86; with biotinyl-Leu-oxazolone, 1.69; in the series with biotinyl-Phe-oxazolone, 2.51; in the series on biotinyl-Trp-oxazolone, 1.53; in the series on biotinyl-Met-oxazolone, 1.72.

For the sequence “AUUCACGUUGGUCAUCGGGUG [Fam2.2 aminoacylation ribozyme variant]”, the self-aminoacylation with biotinyl-Val-oxazolone is 8; with biotinyl-Ile-oxazolone it was 6.91; in the series with biotinyl-Leu-oxazolone, 12.2; in the series on biotinyl-Phe-oxazolone it was 121; with biotinyl-Trp-oxazolone it was 10.1; in the series with biotinyl-Met-oxazolone it was 12.5.
